Measurements from the supplement of paper PMC9170038.

Tested on: MS2 coat protein
Experiment: apparent KD of MS2 coat protein; designed switch direction (-1 OFF switch, 1 ON switch): 1; higher = weaker reporter binding
Summary of the method: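 Transcription of designed RNA switches on Illumina chips was done by stalled E. coli RNA polymerase. SNAP-549-labelled MS2 coat protein was then titrated in doubling steps from 0.7 or 1.5 nM to 3 µM, with steps of 0.8–1.5 h at the lowest and 10–20 min at the highest concentration. The per-design median over clusters of curve-fitted normalised fluorescence is reported as apparent KD.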

[1] = input ligand: microRNA oligo, concentration not stated
[2] = Eterna round: R95, input ligand: FMN 200 uM
[3] = Eterna round: R95, input ligand: microRNA oligo, concentration not stated
[4] = Eterna round: R95, input ligand: none

| Sequence | apparent KD of MS2 coat protein (input ligand: FMN 200 uM) | apparent KD of MS2 coat protein [1] | apparent KD of MS2 coat protein (input ligand: none) | apparent KD of MS2 coat protein [2] | apparent KD of MS2 coat protein [3] | apparent KD of MS2 coat protein [4] |
| --- | --- | --- | --- | --- | --- | --- |
| CUGAGCGAUCUAGGAUAUCACGUCGAAUAGACGUGAGAAGGAGAUCAUAACAUGAGGAUCACCCAUGUAUUACAUGAAGCUCAG [SSNG1/6-A1] (Eterna round: R96, puzzle: Same State NG 1) | 13.2 nM | 10.4 nM | 25.4 nM |  |  |  |
| CUGCUCGGGUGAGGAUAUGCCGCCGUUUCGGCUGCAGAAGGUGCUACGUUACAUGAGGAUCACCCAUGUCUCUGUUGUUUCGUC [salish99_SSNG1_r04_967] (Eterna round: R96, puzzle: Same State NG 1) | 74 nM | 41 nM | 57.3 nM |  |  |  |
| CUGCUCGUGUGAGGAUAUGCCGCCGUUUCGGCUGCAGAAGGUGCUACGUUACAUGAGGAUCACCCAUGUCUCUGUUGUUUCGUA [salish99_SSNG1_r04_948] (Eterna round: R96, puzzle: Same State NG 1) | 40.1 nM | 28.8 nM | 35.9 nM |  |  |  |
| GAAAAACAUGAGGAUCACCCAUGUAGAAAUAUGGGAGGAUAUACAAAGUCGAAAGACAAAGUAGAAGGCCUAAAAG [Mat - Same State 1 - Eli mod - D2] (Eterna round: R96, puzzle: Same State 1) |  | 96.8 nM |  |  |  |  |
| GAAAGAGGAAGCGAGGAUAUCGUGAAGAGUACAUGAGGAUCACCCAUGUUGUAGGUAAAGGUAGGCGAGAAGGCGCAGGAGAAGA [JR_SS2_Sub0102] (puzzle: Same State 2) |  |  |  | 23.9 nM | 23.7 nM | 33.2 nM |
| GAAUAGUUGAGAGGAUAUGUAUUAUUGUAGGAUACAGAAGGUUUUAACAUGAGGAUCACCCAUGUAGGACUAUAUAUGUGAAUA [Parity 98 - Jieux - Same State NG 1] (Eterna round: R96, puzzle: Same State NG 1) |  | 11.7 nM |  |  |  |  |
| GAGAGAGGGUGAGGAUAUUGAGUAAUAAUGAUACAAGAAGGCACAGACAUGAGGAUCACCCAUGUGGGAAUAAUCCAGAGAGAG [Parity 6 - Jieux - Same State NG 1] (Eterna round: R96, puzzle: Same State NG 1) | 262 nM | 153 nM | 289 nM |  |  |  |
| GAGCCAGUCCGAGGAUAUUCAACAUGAGGAUCACCCAUGUAGGCUCAGAAAAGAAAAGAGCCUUGGGAGAAGGCGGACUGGCUC [Xeonanisa<<7] (Eterna round: R96, puzzle: Same State NG 2) | 9.61 nM | 9.01 nM | 14.1 nM |  |  |  |
| GAGCCAGUCCGAGGAUAUUCAUAAUUAAAUACAUGAGGAUCACCCAUGUAGGCAAGAGAGCCUUGGGAGAAGGCGGACUGGCUC [Xeonanisa>>2] (Eterna round: R96, puzzle: Same State NG 2) | 12.8 nM | 25 nM | 42.9 nM |  |  |  |
| GAGCCAGUCCGAGGAUAUUCGUAGGAACACAUGAGGAUCACCCAUGUGGGCUCAGAAGAGCCCUGGGAGAAGGCGGGCUGGCUC [SS-NG2-LRO18] (Eterna round: R96, puzzle: Same State NG 2) | 7.53 nM | 8.45 nM | 17.5 nM |  |  |  |
| GAGGAACAGGCCAACAUGAGGAUCACCCAUGUCCUCGCAUUUCAGGAUAUCUGGAAGAAGAAGAAAGAGAAGGGAAGGUGAAGC [AK SSNG3-V2-34.1] (Eterna round: R96, puzzle: Same State NG 3) | 114 nM | 101 nM | 112 nM |  |  |  |
| GAGGAUGAACUACAGGAUAUAUAGCAGAUGACAUGAGGAUCACCCAUGUAAGAGAAAGGAGGGAGAUAGAAGGGUAUGGGAGGUG [JR_SS2_Sub037] (puzzle: Same State 2) |  |  |  | 34.4 nM | 28.6 nM | 27.1 nM |
| GAGGGACAUGAGGAUCACCCAUGUGGAAAAUUUAAAGGAUAUUAGUGUGGGAAAGUAGGGUAAGAAGGUUGAUUGG [JR_SS1_Sub085] (puzzle: Same State 1) |  |  |  | 50.2 nM | 54.2 nM | 91.3 nM |
| GAGUAGGACUUACAGGAUAUAUGGAGGUUGACAUGAGGAUCACCCAUGUCUGAGUUGAGAGGAGGAUAGAAGGGUAUGGGAGGCG [JR_SS2_Sub030] (puzzle: Same State 2) |  |  |  | 23.4 nM | 16.5 nM | 22.4 nM |
| GAGUAGUUAAAAGGAUAUUGAUUAUUGUAGGAUCAAGAAGGUUUUAACAUGAGGAUCACCCAUGUAGGACUAUAAAUGUGAAAA [Parity 93 - Jieux - Same State NG 1] (Eterna round: R96, puzzle: Same State NG 1) |  | 12.5 nM |  |  |  |  |
| GCACAUGAGGAUCACCCAUGUGCGCUUGAUUGUCCAAGCGCACAGGAUAUACCUCCAAAUGGGAGGUAGAAGGGUGAAAAGAAA [Ravema] (Eterna round: R96, puzzle: Same State NG 3) | 2310 nM | 393 nM | 347 nM |  |  |  |
| GCCAACUAAUGAGGAUAUGGCACCUUAUUGGUGCCAGAAGGCAUGUCAAAAGACAUGAGGAUCACCCAUGUAUUAUAGUUGGCA [Mat - Same State NG 1 - JL mod - D73] (Eterna round: R96, puzzle: Same State NG 1) | 25.5 nM | 62.5 nM | 304 nM |  |  |  |
| GCCAUCGCAUGAGGAUAUGGCACCGUUUCGGUGCCAGAAGGCAUGUCGUAAGACAUGAGGAUCACCCAUGUAGUUAAGAUGGCA [JL Fiskers NG1ss - 33 mod 8] (Eterna round: R96, puzzle: Same State NG 1) | 219 nM | 101 nM | 407 nM |  |  |  |
| GCCCAUAGUAUAUGGGUACAAGCUUUUUAACAUGAGGAUCACCCAUGUACUCGUCUUAUGUGCAGUCCGUAGACUGC [JL-shm-2.17 Brourd mod] (puzzle: Sensor for hsa-mir-208a) |  |  |  | 86.4 nM | 14 nM | 82.3 nM |
| GCCGACUAAUGAGGAUAUGGCACCUUAUUGGUGCCAGAAGGCAUGUCAAUUGACAUGAGGAUCACCCAUGUAUUAUAGUUGGCG [salish99_SSNG1_r04_602] (Eterna round: R96, puzzle: Same State NG 1) | 96.5 nM | 177 nM | 449 nM |  |  |  |
| GCCGCGUUUCGCGCCUACAUGAGGAUCACCCAUGUAUGUGGGCAGGAUAUCGUUUGCUUUGCAAACGAGAAGGGCUGUUGUGGC [salish99_SSNG3_R04_010] (Eterna round: R96, puzzle: Same State NG 3) | 19.7 nM | 21.2 nM | 30 nM |  |  |  |
| GCGAAAGCAGGAGGAUAUGCAGAGGAUCACCCUGUAGAAGGCCACAGAGGAGGAUAUGCAGAGGAUCACCCUGUAGAAGGCCAC [pwkr ssNG DX.17] (Eterna round: R96, puzzle: Same State NG 1) | 176 nM | 262 nM | 303 nM |  |  |  |
| GCGAAGAGGUAAGGAUAUUCAUGGCAUAGACAUGAGGAUCACCCAUGUAGGAGACGAAUUAGAAGGAAGAAGGUACCAGGACGC [AK SSNG2-V2-18] (Eterna round: R96, puzzle: Same State NG 2) | 137 nM | 111 nM | 187 nM |  |  |  |
